Data set [1] addresses T1, Pdr5 (Saccharomyces cerevisiae, UniProt P33302).
T1 construct: full-length, N-terminal 14x His tag with protease cleavage site; homologous expression in S. cerevisiae (pdr1-3), solubilized and purified in trans-PCC-α-M by IMAC and SEC
The data set can be described thus: enzyme-coupled (PK/LDH, NADH) ATPase assay. The format is biochemical. Particulars: 4 mM ATP, 5 mM MgCl2, 300 mM Tris-glycine pH 8, 30 °C, 0.004% trans-PCC-α-M.

The target of data set [2] is T1, Pdr5. The data set can be described thus: inhibition of ATPase, colorimetric phosphate release. The format is biochemical. The text has this:
inhibition of ATPase, colorimetric phosphate release on Pdr5

In data set [3] the test system is O=c1ccn([C@@H]2O[C@H](COP(=O)(O)OP(=O)(O)OP(=O)(O)O)[C@@H](O)[C@H]2O)c(=O)[nH]1. The data set can be described thus: purified protein. Particulars: 10 mM MgCl2, 300 mM Tris-glycine pH 9.5, 0.004% trans-PCC-α-M, 20 min, 0-5 mM NTP.
The test system of data set [4] is Nc1nc2c(ncn2[C@@H]2O[C@H](COP(=O)(O)OP(=O)(O)OP(=O)(O)O)[C@@H](O)[C@H]2O)c(=O)[nH]1. Kind of data set: purified protein. Particulars: 10 mM MgCl2, 300 mM Tris-glycine pH 9.5, 0.004% trans-PCC-α-M, 20 min, 0-5 mM NTP.
Data set [5] has as its system Nc1ccn([C@@H]2O[C@H](COP(=O)(O)OP(=O)(O)OP(=O)(O)O)[C@@H](O)[C@H]2O)c(=O)n1. Kind of data set: purified protein. Particulars: 10 mM MgCl2, 300 mM Tris-glycine pH 9.5, 0.004% trans-PCC-α-M, 20 min, 0-5 mM NTP.
The subject of data set [6] is Nc1ncnc2c1ncn2[C@@H]1O[C@H](COP(=O)(O)OP(=O)(O)OP(=O)(O)O)[C@@H](O)[C@H]1O. Kind of data set: purified protein. Particulars: 10 mM MgCl2, 300 mM Tris-glycine pH 9.5, 0.004% trans-PCC-α-M, 20 min, 0-5 mM NTP.

The values that follow come from publication PMC6533308, “In vitro NTPase activity of highly purified Pdr5, a major yeast ABC multidrug transporter” (Scientific Reports, 2019).

T1 sequence (P33302 whole entry): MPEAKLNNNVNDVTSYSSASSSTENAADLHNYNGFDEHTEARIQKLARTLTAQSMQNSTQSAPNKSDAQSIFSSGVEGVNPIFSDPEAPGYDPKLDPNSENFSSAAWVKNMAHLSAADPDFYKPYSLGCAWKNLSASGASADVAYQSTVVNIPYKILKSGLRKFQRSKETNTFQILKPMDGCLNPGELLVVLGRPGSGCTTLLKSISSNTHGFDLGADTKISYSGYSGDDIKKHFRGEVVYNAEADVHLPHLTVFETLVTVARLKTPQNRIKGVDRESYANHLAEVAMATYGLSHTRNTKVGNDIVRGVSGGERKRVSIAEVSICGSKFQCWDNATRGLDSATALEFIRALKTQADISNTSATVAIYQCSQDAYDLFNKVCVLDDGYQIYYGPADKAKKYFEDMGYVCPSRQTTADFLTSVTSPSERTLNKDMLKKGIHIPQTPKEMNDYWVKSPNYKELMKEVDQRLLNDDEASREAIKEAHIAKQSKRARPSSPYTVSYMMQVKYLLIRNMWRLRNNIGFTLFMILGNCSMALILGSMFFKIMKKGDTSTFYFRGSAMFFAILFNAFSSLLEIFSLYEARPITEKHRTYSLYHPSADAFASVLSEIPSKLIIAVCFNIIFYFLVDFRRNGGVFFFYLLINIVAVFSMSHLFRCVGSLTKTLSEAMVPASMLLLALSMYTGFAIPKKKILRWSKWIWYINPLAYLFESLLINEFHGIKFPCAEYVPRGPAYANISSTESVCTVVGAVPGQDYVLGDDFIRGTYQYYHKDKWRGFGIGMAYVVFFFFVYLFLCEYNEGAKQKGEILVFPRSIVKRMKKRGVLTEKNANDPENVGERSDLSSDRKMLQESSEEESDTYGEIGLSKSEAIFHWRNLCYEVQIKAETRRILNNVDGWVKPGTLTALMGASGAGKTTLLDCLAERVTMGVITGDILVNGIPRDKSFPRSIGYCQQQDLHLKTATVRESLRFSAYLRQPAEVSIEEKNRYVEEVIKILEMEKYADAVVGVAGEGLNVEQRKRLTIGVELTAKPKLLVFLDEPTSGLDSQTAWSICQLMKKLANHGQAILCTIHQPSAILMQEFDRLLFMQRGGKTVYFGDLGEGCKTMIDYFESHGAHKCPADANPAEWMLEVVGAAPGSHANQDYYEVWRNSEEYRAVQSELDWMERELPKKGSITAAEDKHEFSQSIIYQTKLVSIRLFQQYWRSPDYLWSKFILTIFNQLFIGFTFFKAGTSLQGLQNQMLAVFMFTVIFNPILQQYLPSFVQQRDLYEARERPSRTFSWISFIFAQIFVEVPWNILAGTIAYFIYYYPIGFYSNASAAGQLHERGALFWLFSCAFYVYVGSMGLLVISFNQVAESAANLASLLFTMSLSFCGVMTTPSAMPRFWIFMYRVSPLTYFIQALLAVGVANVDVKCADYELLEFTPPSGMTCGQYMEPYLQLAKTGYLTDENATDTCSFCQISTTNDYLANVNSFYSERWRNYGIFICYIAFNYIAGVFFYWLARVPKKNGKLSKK

With `Nc1ncnc2c1ncn2[C@@H]1O[C@H](COP(=O)(O)O)[C@@H](O)[C@H]1O` [AMP], the “maximum inhibition at 2 mM AMP” value in data set [1] is on record as ~ 20%.

As a reminder, the Ki is a dissociation constant, usually derived from enzyme kinetics or from competition with a known ligand. Low values mean tighter binding, high ones weaker binding. For the molecule `CC(=O)N1CCN(c2ccc(OCC3COC(Cn4ccnc4)(c4ccc(Cl)cc4Cl)O3)cc2)CC1` (stereo not drawn) [ketoconazole], the affinity in data set [2], expressed as Ki, was 22.7 ± 2.1 µM.

The molecule `CCN=c1cc2oc3cc(NCC)c(C)cc3c(-c3ccccc3C(=O)OCC)c-2cc1C` [rhodamine 6 G] returned a Ki in data set [2] of 3.2 ± 0.2 µM.

By Km is commonly meant the substrate concentration at which the rate is half of its maximum. As a reminder, the Vmax is the rate approached at saturating substrate. In the case of Pdr5 (Saccharomyces cerevisiae S288C), the Km in data set [3] is 590 ± 110 µM; in data set [4], 1610 ± 300 µM; in data set [5], 1620 ± 250 µM; in data set [6], 440 ± 50 µM. For the same molecule, the Vmax in data set [3] is 0.0646 µmol/min/mg; in data set [4], 0.106 µmol/min/mg; in data set [5] it was 0.385 µmol/min/mg; in data set [6], 0.208 µmol/min/mg. Also, the Vmax/Km was 100 µL/min/mg in data set [3], 100 µL/min/mg in data set [4], 200 µL/min/mg in data set [5] and 500 µL/min/mg in data set [6].
